Data from US20260218138A1, “ENGINEERED ACYLTRANSFERASES HAVING ALTERED SUBSTRATE SPECIFICITY” (KEZBIOSOLUTIONS GMBH, priority 2022, published 2026).
Substitutions are numbered along the chain they refer to. Names may count otherwise.

B1: Mutant A35: engineered murine acyltransferase, mutations T161L F184L R286L K186D R300D (protein)
chain: NKRPLWFICSGMGTQWRGMGLSLMRLDSFRESILRSDEAVKPLGVKVSDLLLSTDERTFDDIVHAFVSLTAIQIALIDLLTSVGLKPDGIIGHSLGEVACGYADGCLSQREAVLAAYWRGQCIKDAHLPPGSMAAVGLSWEECKQRCPAGVVPACHNSEDLVTISGPQAAVNEFVEQLKQEGVLADEVRTGGLAFHSYFMEGIAPTLLQALKKVIREPRPRSARWLSTSIPEAQWQSSLARTSSAEYNVNNLVSPVLFQEALWHIPEHAVVLEIAPHALLQAVLKLGVKSSCTIIPLMKDDHKDNLEFFLTNLGKVHLT
B2: (WT): wild type murine FAS malonyl-acetyl-transferase (MAT), no mutation (protein, listed as Mus musculus)
chain: B1 chain with L161T, L184F, D186K, L286R, D300R
B3: Mutant A12: engineered murine acyltransferase, mutations K186D R300D (protein)
chain: B1 chain with L161T, L184F, L286R
B4: Mutant A08: engineered murine acyltransferase, mutation K285D (protein)
chain: B1 chain with L161T, L184F, D186K, K285D, L286R, D300R
B5: Mutant A13: engineered murine acyltransferase, mutations K186D R300E (protein)
chain: B1 chain with L161T, L184F, L286R, D300E
B6: Mutant A14: engineered murine acyltransferase, mutations K186E R300D (protein)
chain: B1 chain with L161T, L184F, D186E, L286R
B7: Mutant A04: engineered murine acyltransferase, mutations T161A F184A K186A R286A (protein)
chain: B1 chain with L161A, L184A, D186A, L286A, D300R
B8: Mutant A05: engineered murine acyltransferase, mutation K186E (protein)
chain: B1 chain with L161T, L184F, D186E, L286R, D300R
B9: Mutant A01: engineered murine acyltransferase, mutation T161A (protein)
chain: B1 chain with L161A, L184F, D186K, L286R, D300R
B10: Mutant A11: engineered murine acyltransferase, mutation R300E (protein)
chain: B1 chain with L161T, L184F, D186K, L286R, D300E
B11: Mutant A03: engineered murine acyltransferase, mutations T161A F184A R286A (protein)
chain: B1 chain with L161A, L184A, D186K, L286A, D300R
B12: Mutant A10: engineered murine acyltransferase, mutation R300D (protein)
chain: B1 chain with L161T, L184F, D186K, L286R
B13: Mutant A15: engineered murine acyltransferase, mutations K186E R300E (protein)
chain: B1 chain with L161T, L184F, D186E, L286R, D300E
B14: Mutant A02: engineered murine acyltransferase, mutation T161Y (protein)
chain: B1 chain with L161Y, L184F, D186K, L286R, D300R
B15: Mutant A07: engineered murine acyltransferase, mutation K186D (protein)
chain: B1 chain with L161T, L184F, L286R, D300R
B16: Mutant A48: engineered murine acyltransferase, mutations T161A F184E R286D K186D D160R (protein)
chain: B1 chain with D160R, L161A, L184E, L286D, D300R

experiment: In-depth kinetics: enzyme-coupled assay, malonyl transfer from Mal-CoA to ACP; assay type: biochemical, murine; settings: substrate A (Mal-CoA), acceptor ACP fixed at 85 μM, apparent parameters
Method: (§1) Y-axes show turnover in s^−1 and x-axes show substrate concentration in μM. Apparent kinetic parameters at a fixed acceptor concentration of ACP of 85 μM were determined by fitting the data points with the Michaelis-Menten function. Shown error bares reflect standard deviations from triplicates.
(§2) An enzyme-coupled assay was performed to analyze the transfer of acyl-moieties from CoA to the ACP. Four solutions were prepared as 4× concentrated stocks in the assay buffer. Solution 1 contained the acyltransferase at the concentration range of 0.01 μM-10 μM, depending on the transfer kinetics to achieve good signal to noise ratios. Solution 2 contained the enzyme-coupled system including 8 mM α-ketoglutaric acid, 1.6 mM NAD+, 1.6 mM TPP and 60 mU/100 μL αKGDH. Solution 3 contained the methylmalonyl (MMal)-CoA at concentrations between 0.1 μM and 1,000 μM and solution 4 contained the ACP from murine FAS as a standalone protein at 240 μM. 5 μL of Solutions 1-3 were pipetted into a 384-well Small Volume HiBase Microplates (Greiner Bio-one) and mixed manually. The reactions were started by adding solution 4 with the dispenser system of the microplate reader (ClarioStar, BMG labtech). The reaction progress was recorded using the following settings: 348-20 nm; emission: 476-20 nm; gain: 1500; focal height: 11.9 mm; flashes: 17; orbital averaging: off.
(§3) In-depth kinetic analysis results allowing a comparison of enzyme kinetic parameters for the transfer of malonyl-moieties from either Mal-CoA or 3-Oxo-3-[[2-[(1-oxohexyl)amino]ethyl]thio]-propanoic acid to the ACP are shown for a representative mutant (A35) herein. Enzyme kinetics were determined with the established enzyme-coupled assay for Mal-CoA kinetics and a variation of the new thiol quantifying assay using ThioGlo.
Enzyme-coupled assay was performed as described in Example 3 with 4× concentrated stocks. The enzyme concentration of A35 in Solution 1 was 4.2 μM, the substrate concentrations of Mal-CoA in Solutions 3 were between 8-400 μM and the acceptor concentration of ACP in Solution 4 was 340 μM.

| Molecule | Km [µM] | kcat [s⁻¹] |
| --- | --- | --- |
| B1 | 25 | 0.01 |

same assay, conditions: substrate A (Mal-CoA), acceptor ACP; kcat/Km relative to substrate A

| Molecule | Factor |
| --- | --- |
| B1 | 1 |

experiment: not given; settings: Comparative data from Rittner et al. 2018; cited from earlier work

| Molecule | Km [µM] | kcat [s⁻¹] |
| --- | --- | --- |
| B2 | 0.62 | 4.000 |

experiment: Enzyme-coupled assay: transfer of acyl-moieties from MMal-CoA to the ACP; assay type: biochemical; settings: substrate MMal-CoA, acceptor ACP from murine FAS
Method: as §2

| Molecule | Km [µM] | kcat [s⁻¹] |
| --- | --- | --- |
| B2 | 0.53 | 1.297 |
| B3 | 66.2 | 0.019 |
| B4 | 0.11 | 0.133 |
| B5 | 686 | 0.190 |
| B6 | 218 | 0.051 |
| B7 | 7.24 | 0.013 |
| B8 | 14.2 | 0.101 |
| B9 | 1.47 | 0.051 |
| B10 | 3.33 | 0.834 |
| B11 | 3.41 | 0.021 |
| B12 | 5.06 | 0.582 |
| B13 | 58.4 | 0.030 |
| B14 | 38.8 | 0.428 |
| B15 | 18.6 | 0.093 |

experiment: Screen: transfer of malonyl-moieties from Mal-CoA to N-(2-mercaptoethyl)-hexanamide (enzyme-coupled assay); assay type: biochemical, murine; settings: fixed substrate and acceptor concentrations; FIG. 4
Method: Specific transfers from Mal-CoA to N-(2-mercaptoethyl)-hexanamide were analyzed at fixed substrate and acceptor concentrations. […] Shown error bares reflect standard deviations from triplicates.
Further engineered mutants were expressed, purified and analyzed, building up on the previous studies. A screen for fifty different exemplary mutants was performed analyzing the transfer of malonyl-moieties from CoA to N-(2-mercaptoethyl)-hexanamide. Four solutions were prepared as 4× concentrated stocks in the assay buffer. Solution 1 contained the acyltransferases at the concentration range of 0.01 μM-10 μM and were arranged in four groups depending on their individual turnover rates to achieve good signal to noise ratios. Solution 2 contained the enzyme-coupled system including 8 mM α-ketoglutaric acid, 1.6 mM NAD+, 1.6 mM TPP and 60 mU/100 μL αKGDH. Solution 3 contained a fixed concentration of malonyl (Mal)-CoA at 200 μM and solution 4 contained the acceptor N-(2-mercaptoethyl)-hexanamide at 200 μM. 5 μL of Solutions 1-3 were pipetted into a 384-well Small Volume HiBase Microplates (Greiner Bio-one) and mixed manually. The reactions were started by adding 5 μL of solution 4 with an automatic multichannel pipette (ClipTip). The reaction progress was recorded using the following settings: 348-20 nm; emission: 476-20 nm; gain: 1700; focal height: 12.1 mm; flashes: 10; orbital averaging: off. […]

| Molecule | turnover rate, transfer from Mal-CoA to N-(2-mercaptoethyl)-hexanamide |
| --- | --- |
| B16 | did not give a detectable signal |

experiment: In-depth kinetics: thiol quantification assay (ThioGlo), malonyl transfer from non-CoA substrate to ACP; assay type: biochemical, murine; settings: substrate B (3-Oxo-3-[[2-[(1-oxohexyl)amino]ethyl]thio]-propanoic acid), acceptor ACP fixed at 85 μM, apparent parameters
Method: as §1
To verify the re-engineered mutant activity, having a substrate specificity altered from natural CoA substrates to non-CoA substrates, an alternative method to quantify specific turnover rates for non-CoA substrates was established. Such non-CoA substrates are not detectable by the enzyme-coupled assay. We used a thiol-sensitive fluorophore (ThioGlo4; Yi et al. 2009) to quantify the released free thiol groups from the substrate 3-Oxo-3-[[2-[(1-oxohexyl)amino]ethyl]thio]-propanoic acid after the enzyme-specific transfer of the malonyl moiety to a non-thiol acceptor. Briefly, three solutions were prepared in either a twofold concentration or as 4× concentrated stocks in the assay buffer. […] Free thiols were detected by adding 10 μL of 120 μM ThioGlo in the buffer 250 mM potassium phosphate, 1 mM EDTA and 10% glycerol, mixing and fluorescence detection at the microplate reader (ClarioStar, BMG labtech) using the following settings: 400-20 nm; emission: 465-20 nm; gain: 700; focal height: 12.5 mm; flashes: 20; orbital averaging: off. […]
as §3
A variation of the thiol quantification assay in Example 5 was established to be able to separate the liberated thiol groups from 3-Oxo-3-[[2-[(1-oxohexyl)amino]ethyl]thio]-propanoic acid after acyl-transfer from the thiol groups of the acceptor ACP. […]

| Molecule | Km [µM] | kcat [s⁻¹] |
| --- | --- | --- |
| B1 | 30 | 5.75 |

same assay, conditions: substrate B (non-CoA substrate), acceptor ACP; kcat/Km relative to substrate A (Mal-CoA)

| Molecule | Factor |
| --- | --- |
| B1 | 467 |
